{"source": "the supplement of paper PMC11865577", "data": [{"test_system": "TO-3-N3 (biotin conjugate)", "test": "pull-down binding Z-score (relative to library population); higher = stronger binding", "details": "RNA library: Library-2", "summary_of_the_method": "(§1)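 An RNA library (1 μg) carrying a Cy5 or Cy3 end label was heat-folded in phosphate/NaCl/KCl buffer, then incubated for 60 min at 25 °C with streptavidin beads loaded with 100 pmol of biotin-conjugated small molecule. The beads were washed three times, and bound RNA was released in hot SDS and hybridised to a DNA barcode microarray for 20 h at 55.5 °C. Each binding score was derived by subtracting the signal from beads without compound, averaging the barcoded replicate probes after removing the highest and lowest, and expressing the result as a Z-score relative to the library mean and standard deviation.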", "values": [{"sequence": "GAAGGAAGGCAAGGCUGUCUGUCCAUC [hsa-mir-4800]", "pull-down binding Z-score": 0.852}, {"sequence": "GAAGGGAAGCUGGGAACCUGACUGCCUC [hsa-mir-6867]", "pull-down binding Z-score": 0.688}, {"sequence": "GAAGGGGAGUUUCCCUCUAUUCCCUUC [hsa-mir-3679]", "pull-down binding Z-score": 0.265}, {"sequence": "GAAUGAAAAAAUGAAUCAUC [hsa-mir-421]", "pull-down binding Z-score": -0.311}, {"sequence": "GAAUUCGAUUCAUCAAAGCGAGUC [hsa-mir-485]", "pull-down binding Z-score": -0.128}, {"sequence": "GAAUUCGCUUUAUUUAUGUUGAAUC [hsa-mir-377]", "pull-down binding Z-score": -0.514}, {"sequence": "GACAAUAUGUAUAAUGUUCAUAAGUCAUUC [hsa-mir-384]", "pull-down binding Z-score": 0.197}, {"sequence": "GACACCUGGAUUCAGAGAACAUGUC [hsa-mir-1276]", "pull-down binding Z-score": -0.322}, {"sequence": "GACACUUUCACUAUAUAUAGUGGC [hsa-mir-3156-3]", "pull-down binding Z-score": -0.049}, {"sequence": "GACAGGCUGGCCUCUGGAUGACCUGC [hsa-mir-5189]", "pull-down binding Z-score": 1.18}, {"sequence": "GACAGGGAAAAGCACACAAGGAACUUGUC [hsa-mir-3909]", "pull-down binding Z-score": -0.138}, {"sequence": "GACAGGGCAGAGGGUUGCGCCCCCUC [hsa-mir-6511b-1_6511b-2_6511a-2_6511a-3_6511a-1_6511a-4]", "pull-down binding Z-score": 0.412}, {"sequence": "GACAUCCCUCAUCUGUUUCUCACUGGUGUC [hsa-mir-6830]", "pull-down binding Z-score": 0.191}, {"sequence": "GACAUCUGGGCCAACUCUGAUCUC [hsa-mir-6515]", "pull-down binding Z-score": -0.163}, {"sequence": "GACAUGCUCUGACUCCCCUGAUGUC [hsa-mir-6852]", "pull-down binding Z-score": -0.0796}, {"sequence": "GACCAAAAGUCAACAUUAAACAACAAAUCUUGGCC [hsa-mir-5708]", "pull-down binding Z-score": -0.733}, {"sequence": "GACCCCCAUGCACCCCUGUGGGCCCCUGGCAUC [hsa-mir-1257]", "pull-down binding Z-score": 0.219}, {"sequence": "GACCGUUGGCAUCUUAAUUACCCUC [hsa-mir-532]", "pull-down binding Z-score": -0.448}, {"sequence": "GACCUGGAUGUGUAGGAGCUAAGACACACUCCAGGGG [hsa-mir-920]", "pull-down binding Z-score": 0.595}, {"sequence": "GACGAUUUGAAUUAAUAAAUUC [hsa-mir-579]", "pull-down binding Z-score": 0.329}, {"sequence": "GACGGCGCCCGCCCUGGCCCUGGC [hsa-mir-4745]", "pull-down binding Z-score": 0.678}, {"sequence": "GACGGUGGGGGCCACGCUGACAGCCGC [hsa-mir-6804]", "pull-down binding Z-score": 2.01}, {"sequence": "GACGUCCAAUCUCUUUGGGACGCC [hsa-mir-2682]", "pull-down binding Z-score": 0.551}, {"sequence": "GACGUGAAGGGACCACAUCCCGCUUCAUGUC [hsa-mir-4697]", "pull-down binding Z-score": 0.541}, {"sequence": "GACUGCUCAAGGUCAAAGGGGUC [hsa-mir-3918]", "pull-down binding Z-score": 0.174}, {"sequence": "GACUGGACAACAUGAUGAGCCCAAACCAAUC [hsa-mir-5092]", "pull-down binding Z-score": -0.245}, {"sequence": "GACUUCCAUGACAUGAAAUAGGAAGUC [hsa-mir-616]", "pull-down binding Z-score": -0.453}, {"sequence": "GACUUGAGAUUAUAGUC [hsa-mir-3685]", "pull-down binding Z-score": 0.268}, {"sequence": "GACUUUUCUAUUUUCCAAAAGC [hsa-mir-423]", "pull-down binding Z-score": -0.475}, {"sequence": "GAGAAACUUGAGGUCUCUGGGAGUUGCUUAAACCAGUUGACCGUAACCUGGCCAGAGAAUUCUGAUAGUGUC [hsa-mir-6740]", "pull-down binding Z-score": -0.13}, {"sequence": "GAGAACUCACGGUGCCUGUGGUUCGA [hsa-mir-3125]", "pull-down binding Z-score": -0.41}, {"sequence": "GAGACAACUUCCCAGUCUC [hsa-mir-6717]", "pull-down binding Z-score": -0.96}, {"sequence": "GAGACACCCGCUACCUGGUGUU [hsa-mir-4321]", "pull-down binding Z-score": -0.271}, {"sequence": "GAGACACUC [hsa-mir-6126]", "pull-down binding Z-score": -0.431}, {"sequence": "GAGACGCUUUUAAAGUCUC [hsa-mir-3926-2]", "pull-down binding Z-score": -0.631}, {"sequence": "GAGACUGCCCAAAGACUCUUCAGUAUC [hsa-mir-2681]", "pull-down binding Z-score": 0.782}, {"sequence": "GAGACUUAGAAAUCCCUAAGUCUC [hsa-mir-3921]", "pull-down binding Z-score": -0.258}, {"sequence": "GAGACUUUAAAAGCGUCUC [hsa-mir-3926-1]", "pull-down binding Z-score": -0.747}, {"sequence": "GAGACUUUGUGAUUUGUCUCCAAAGCCUC [hsa-mir-6862-2_6862-1]", "pull-down binding Z-score": 0.202}, {"sequence": "GAGAGAGUGCACAGCCAGCUCAGGGAUUAAAGCUCUUUCUCUCUCUCUC [hsa-mir-7110]", "pull-down binding Z-score": -0.181}, {"sequence": "GAGAGUGCUGUCUGAAUGCAAUGC [hsa-mir-500a]", "pull-down binding Z-score": 0.797}, {"sequence": "GAGAGUGCUUUCUGAAUGCAAUGC [hsa-mir-501]", "pull-down binding Z-score": -0.342}, {"sequence": "GAGAUGUGAUCCUGCCACAUCUC [hsa-mir-1304]", "pull-down binding Z-score": -0.09}, {"sequence": "GAGCCCUGAGGGGCUC [hsa-mir-6087]", "pull-down binding Z-score": 0.542}, {"sequence": "GAGCCCUUGCACACCACCAGCCUC [hsa-mir-6845]", "pull-down binding Z-score": -0.0477}, {"sequence": "GAGCCUGUCACAUCUCCAGACUC [hsa-mir-3925]", "pull-down binding Z-score": 0.0173}, {"sequence": "GAGCCUUAAAGGAUGAGGUA [hsa-mir-4280]", "pull-down binding Z-score": 0.0602}, {"sequence": "GAGCUCAGGAGCUC [hsa-mir-8052]", "pull-down binding Z-score": -0.634}, {"sequence": "GAGCUGGAAGGAGUGGGCCUGGCUC [hsa-mir-6847]", "pull-down binding Z-score": 0.4}, {"sequence": "GAGCUGGGUGGGGUGCCAAGCCU [hsa-mir-6819]", "pull-down binding Z-score": 2.3}, {"sequence": "GAGCUUCGUGUACAUUAUCUAUUAGAAAAUGAAGUAC [hsa-mir-4724]", "pull-down binding Z-score": 0.0277}, {"sequence": "GAGGAUGCAGGAGAGGAAGGGGGCUUCUUUUUGACGCCUACUUCAUCAGCUGCUCCUC [hsa-mir-4330]", "pull-down binding Z-score": 2.31}, {"sequence": "GAGGCCAGAGGUGCCC [hsa-mir-4292]", "pull-down binding Z-score": -0.0325}, {"sequence": "GAGGCCUCUUGCCAUGGCCUCC [hsa-mir-7113]", "pull-down binding Z-score": -0.486}, {"sequence": "GAGGGAUGAGUGCACUUCACCUGC [hsa-mir-4435-1_4435-2]", "pull-down binding Z-score": -0.191}, {"sequence": "GAGGGGCAUGCACUGUGUUCACCCUG [hsa-mir-134]", "pull-down binding Z-score": 0.47}]}, {"test_system": "G-clamp-N3 (biotin conjugate)", "test": "pull-down binding Z-score (relative to library population); higher = stronger binding", "details": "RNA library: Library-1 (pre-miRNA loops + repeats)", "summary_of_the_method": "as §1", "values": [{"sequence": "GAAACAUCUUUUAC [hsa-mir-4514]", "pull-down binding Z-score": -0.862}, {"sequence": "GAAAUAGGCUGCGAAGAUAACAGUAUUUC [hsa-mir-3942]", "pull-down binding Z-score": 0.773}, {"sequence": "GAAAUGUGUGGAAGAUGGCAUUUC [hsa-mir-4482]", "pull-down binding Z-score": 2.74}, {"sequence": "GAACACUAUUCCAUUGUGUUC [hsa-mir-588]", "pull-down binding Z-score": 0.0194}, {"sequence": "GAACCCAAGAAAAGCUGACUUGGAGGUCCC [hsa-mir-4667]", "pull-down binding Z-score": -0.432}, {"sequence": "GAACCCAGGGAGCCAGACUGCCUGGGUUC [hsa-mir-607]", "pull-down binding Z-score": -0.0852}, {"sequence": "GAACUAACUAACCAGAACUAUUUUGUUC [hsa-mir-4652]", "pull-down binding Z-score": -1.48}, {"sequence": "GAACUUUUACGGUGAACCAGGAGGUUC [hsa-mir-629]", "pull-down binding Z-score": -0.428}, {"sequence": "GAAGAAGAAGAAGAAGAAGAAGAAGAAGAAGAAGAAGAAGAAGAAGAA [r(GAA)16]", "pull-down binding Z-score": -1.35}, {"sequence": "GAAGAUUCUGAAAAUCACUAACU [hsa-mir-6878]", "pull-down binding Z-score": -1.6}, {"sequence": "GAAGCACUGGUUAUGAUUUGCAUC [hsa-mir-3126]", "pull-down binding Z-score": -0.739}, {"sequence": "GAAGCCGCUCCCACCUGACCCUCACGGCCUC [hsa-mir-3605]", "pull-down binding Z-score": -0.691}, {"sequence": "GAAGCCUUGAUCAGAAGCUAGGAAGGCUUC [hsa-mir-4762]", "pull-down binding Z-score": 1.95}, {"sequence": "GAAGCGAGAUGUUUGUCUAAA [hsa-mir-6835]", "pull-down binding Z-score": -0.211}, {"sequence": "GAAGCUCCUAUAGCUCCUGUAGCUUC [hsa-mir-578]", "pull-down binding Z-score": -0.978}, {"sequence": "GAAGCUGUAAGACACAGCUAAGCUUU [hsa-mir-30d]", "pull-down binding Z-score": -0.32}, {"sequence": "GAAGCUGUAAGGUGUUCAGAGGAGCUUU [hsa-mir-30e]", "pull-down binding Z-score": 2.63}, {"sequence": "GAAGCUGUGAAGCCACAGAUGGGCUUU [hsa-mir-30a]", "pull-down binding Z-score": 0.763}, {"sequence": "GAAGGAAGGCAAGGCUGUCUGUCCAUC [hsa-mir-4800]", "pull-down binding Z-score": -1.01}, {"sequence": "GAAGGGAAGCUGGGAACCUGACUGCCUC [hsa-mir-6867]", "pull-down binding Z-score": -0.151}, {"sequence": "GAAGGGGAGUUUCCCUCUAUUCCCUUC [hsa-mir-3679]", "pull-down binding Z-score": -0.729}, {"sequence": "GAAUGAAAAAAUGAAUCAUC [hsa-mir-421]", "pull-down binding Z-score": 0.509}, {"sequence": "GAAUUCGAUUCAUCAAAGCGAGUC [hsa-mir-485]", "pull-down binding Z-score": -0.234}, {"sequence": "GAAUUCGCUUUAUUUAUGUUGAAUC [hsa-mir-377]", "pull-down binding Z-score": -0.856}, {"sequence": "GACAAUAUGUAUAAUGUUCAUAAGUCAUUC [hsa-mir-384]", "pull-down binding Z-score": 0.231}, {"sequence": "GACACCUGGAUUCAGAGAACAUGUC [hsa-mir-1276]", "pull-down binding Z-score": -0.716}, {"sequence": "GACACUUUCACUAUAUAUAGUGGC [hsa-mir-3156-3]", "pull-down binding Z-score": -0.25}, {"sequence": "GACAGGCUGGCCUCUGGAUGACCUGC [hsa-mir-5189]", "pull-down binding Z-score": 0.679}, {"sequence": "GACAGGGAAAAGCACACAAGGAACUUGUC [hsa-mir-3909]", "pull-down binding Z-score": 0.557}, {"sequence": "GACAGGGCAGAGGGUUGCGCCCCCUC [hsa-mir-6511b-1_6511b-2_6511a-2_6511a-3_6511a-1_6511a-4]", "pull-down binding Z-score": 1.05}, {"sequence": "GACAUCCCUCAUCUGUUUCUCACUGGUGUC [hsa-mir-6830]", "pull-down binding Z-score": -0.521}, {"sequence": "GACAUCUGGGCCAACUCUGAUCUC [hsa-mir-6515]", "pull-down binding Z-score": -1.32}, {"sequence": "GACAUGCUCUGACUCCCCUGAUGUC [hsa-mir-6852]", "pull-down binding Z-score": 0.588}, {"sequence": "GACCAAAAGUCAACAUUAAACAACAAAUCUUGGCC [hsa-mir-5708]", "pull-down binding Z-score": -1.3}, {"sequence": "GACCCCCAUGCACCCCUGUGGGCCCCUGGCAUC [hsa-mir-1257]", "pull-down binding Z-score": -1.71}, {"sequence": "GACCGUUGGCAUCUUAAUUACCCUC [hsa-mir-532]", "pull-down binding Z-score": -0.675}, {"sequence": "GACCUGGAUGUGUAGGAGCUAAGACACACUCCAGGGG [hsa-mir-920]", "pull-down binding Z-score": 1.89}]}]}
